Data reported in patent US20170349647A1.

Legend:
[1] = target: recombinant nucleoprotein derived from influenza viruses subtype A H1N1 (Sino Biological, 11675-[change]) (influenza virus type A H1N1)
[2] = target: recombinant nucleoprotein derived from influenza viruses subtype A H3N2 (Sino Biological, 40208-[change]) (influenza virus type A H3N2)

Chain of recombinant nucleoprotein derived from influenza viruses subtype A H1N1 (Sino Biological, 11675-[change]) (influenza virus type A H1N1) (P03466 whole entry): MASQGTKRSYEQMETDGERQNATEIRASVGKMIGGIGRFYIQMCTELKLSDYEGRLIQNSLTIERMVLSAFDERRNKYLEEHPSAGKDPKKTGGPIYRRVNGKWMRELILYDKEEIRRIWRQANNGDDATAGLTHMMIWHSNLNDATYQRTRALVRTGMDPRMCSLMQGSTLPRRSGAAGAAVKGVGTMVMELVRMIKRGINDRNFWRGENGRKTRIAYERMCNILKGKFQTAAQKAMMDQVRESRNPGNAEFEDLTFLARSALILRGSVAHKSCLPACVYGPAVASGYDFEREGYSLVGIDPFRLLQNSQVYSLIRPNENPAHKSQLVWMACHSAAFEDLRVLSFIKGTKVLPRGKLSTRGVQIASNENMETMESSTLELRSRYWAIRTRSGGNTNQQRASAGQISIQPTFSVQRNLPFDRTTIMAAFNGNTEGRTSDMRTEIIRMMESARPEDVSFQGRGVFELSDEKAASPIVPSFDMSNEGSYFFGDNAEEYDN

B1: VHH antibody consisting of the amino acid sequence represented by SEQ ID NO: 08 (VHH)
VHH: QVQLVESGGGLVQAGGSLRLSCAASRTIFNPNVMGWYRQAPGKQRELVADISLSGSTNYADSVKGRFTISRDNAKNTMYLQMNSLKPEDTAVYYCNTNAISGAPGRYWGQGTQVTVSS
Question: Which results are given for B1?
Answer: EC50 (read off the curve) [1]: 0.004 µg/mL; EC50 (read off the curve) [2]: 0.03 µg/mL
